Laboratory results reported in publication PMC12407893 (bioRxiv, 2025).

How the values were obtained:
[1] = molecular target: T1, yeast RNA polymerase II (pol II) WT, TAP tag on RPB3 (S. cerevisiae, UniProt P04050;P08518;P16370;P20433;P20434;P20435;P34087;P20436;P27999;P22139;P38902;P40 …); experiment: pull-down
[2] = molecular target: T1, yeast RNA polymerase II (pol II) WT, …; experiment: pull-down; remark: listed apart in the source
[3] = molecular target: RPB1, as subunit of purified yeast pol II (S. cerevisiae, UniProt P04050 1-1733); experiment: cross-linking
Chain of RPB1, as subunit of purified yeast pol II (P04050 whole entry): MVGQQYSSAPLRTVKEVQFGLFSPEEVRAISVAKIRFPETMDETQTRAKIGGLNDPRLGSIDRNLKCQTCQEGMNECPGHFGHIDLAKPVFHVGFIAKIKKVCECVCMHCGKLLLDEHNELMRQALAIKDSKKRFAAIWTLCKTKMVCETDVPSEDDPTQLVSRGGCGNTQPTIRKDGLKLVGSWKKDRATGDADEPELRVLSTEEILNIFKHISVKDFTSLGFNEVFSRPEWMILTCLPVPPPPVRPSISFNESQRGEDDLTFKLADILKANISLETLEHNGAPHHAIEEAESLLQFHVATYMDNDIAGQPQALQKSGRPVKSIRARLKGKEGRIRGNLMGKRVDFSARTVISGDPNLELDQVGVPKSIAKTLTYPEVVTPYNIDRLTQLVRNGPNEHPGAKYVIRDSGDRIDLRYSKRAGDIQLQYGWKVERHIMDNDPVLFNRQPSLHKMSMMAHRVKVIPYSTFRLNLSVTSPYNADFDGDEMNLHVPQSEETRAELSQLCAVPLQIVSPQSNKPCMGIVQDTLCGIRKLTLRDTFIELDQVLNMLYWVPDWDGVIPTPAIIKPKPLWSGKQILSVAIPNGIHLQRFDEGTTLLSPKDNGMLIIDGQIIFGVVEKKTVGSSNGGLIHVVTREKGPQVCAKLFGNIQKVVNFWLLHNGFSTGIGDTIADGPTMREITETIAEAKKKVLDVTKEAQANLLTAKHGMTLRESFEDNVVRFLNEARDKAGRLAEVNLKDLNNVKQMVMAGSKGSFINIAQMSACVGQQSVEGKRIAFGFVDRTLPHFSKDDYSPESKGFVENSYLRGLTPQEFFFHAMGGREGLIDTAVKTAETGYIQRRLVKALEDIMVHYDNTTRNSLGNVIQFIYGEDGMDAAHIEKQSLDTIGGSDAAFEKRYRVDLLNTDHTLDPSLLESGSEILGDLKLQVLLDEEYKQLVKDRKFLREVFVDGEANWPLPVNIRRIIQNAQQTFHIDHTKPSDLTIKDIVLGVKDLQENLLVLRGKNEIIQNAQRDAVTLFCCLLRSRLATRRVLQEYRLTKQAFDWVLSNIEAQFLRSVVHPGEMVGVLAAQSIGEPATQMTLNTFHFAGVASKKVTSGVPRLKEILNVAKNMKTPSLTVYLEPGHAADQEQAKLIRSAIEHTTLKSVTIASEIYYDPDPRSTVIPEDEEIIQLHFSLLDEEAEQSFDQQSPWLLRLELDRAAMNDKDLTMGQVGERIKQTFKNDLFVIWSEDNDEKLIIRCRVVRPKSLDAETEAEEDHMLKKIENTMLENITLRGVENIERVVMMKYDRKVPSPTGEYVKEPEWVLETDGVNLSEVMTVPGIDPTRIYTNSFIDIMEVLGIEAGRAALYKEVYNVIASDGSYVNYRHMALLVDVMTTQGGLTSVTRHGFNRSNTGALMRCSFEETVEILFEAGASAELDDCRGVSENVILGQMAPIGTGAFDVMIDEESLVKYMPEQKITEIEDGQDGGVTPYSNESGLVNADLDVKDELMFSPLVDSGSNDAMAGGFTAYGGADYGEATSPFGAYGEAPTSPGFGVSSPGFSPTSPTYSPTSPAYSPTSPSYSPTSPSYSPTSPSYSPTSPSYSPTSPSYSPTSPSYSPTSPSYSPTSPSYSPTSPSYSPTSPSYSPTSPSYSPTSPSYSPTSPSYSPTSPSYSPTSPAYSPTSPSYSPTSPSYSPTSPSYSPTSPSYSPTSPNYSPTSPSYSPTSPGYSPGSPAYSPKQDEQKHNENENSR

[4] = molecular target: T1, yeast RNA polymerase II (pol II) WT, …; experiment: cross-linking
[5] = molecular target: T2, RPB5, as subunit of purified yeast pol II (S. cerevisiae, UniProt P20434 1-215); experiment: cross-linking
T2 sequence: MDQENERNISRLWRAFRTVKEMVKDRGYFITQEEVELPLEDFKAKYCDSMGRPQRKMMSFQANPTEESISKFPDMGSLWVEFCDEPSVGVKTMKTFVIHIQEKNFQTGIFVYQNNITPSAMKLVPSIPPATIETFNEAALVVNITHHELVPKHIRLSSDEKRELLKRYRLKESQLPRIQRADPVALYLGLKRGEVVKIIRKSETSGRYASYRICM

Binder | binding result [1] | also measured
GST-fused Prp40 FF3 domain (270–335) (domain or fragment) KTQALKELREYLNGIITTSSSETFITWQQLLNHYVFDKSKRYMANRHFKVLTHEDVLNEYLKIVNT | binds | 
protein A-tagged Prp40, full length (natural protein) MSIWKEAKDASGRIYYYNTLTKKSTWEKPKELISQEELLLRENGWKAAKTADGKVYYYNPTTRETSWTIPAFEKKVEPIAEQKHDTVSHAQVNGNRIALTAGEKQEPGRTINEEESQYANNSKLLNVRRRTKEEAEKEFITMLKENQVDSTWSFSRIISELGTRDPRYWMVDDDPLWKKEMFEKYLSNRSADQLLKEHNETSKFKEAFQKMLQNNSHIKYYTRWPTAKRLIADEPIYKHSVVNEKTKRQTFQDYIDTLIDTQKESKKKLKTQALKELREYLNGIITTSSSETFITWQQLLNHYVFDKSKRYMANRHFKVLTHEDVLNEYLKIVNTIENDLQNKLNELRLRNYTRDRIARDNFKSLLREVPIKIKANTRWSDIYPHIKSDPRFLHMLGRNGSSCLDLFLDFVDEQRMYIFAQRSIAQQTLIDQNFEWNDADSDEITKQNIEKVLENDRKFDKVDKEDISLIVDGLIKQRNEKIQQKLQNERRILEQKKHYFWLLLQRTYTKTGKPKPSTWDLASKELGESLEYKALGDEDNIRRQIFEDFKPESSAPTAESATANLTLTASKKRHLTPAVELDY |  | binding result [2]: binds
GST-fused Prp40 FF4 domain (351–415) (domain or fragment) NYTRDRIARDNFKSLLREVPIKIKANTRWSDIYPHIKSDPRFLHMLGRNGSSCLDLFLDFVDEQR | binds | 
Prp40 FF4–6 (351–552) (domain or fragment) NYTRDRIARDNFKSLLREVPIKIKANTRWSDIYPHIKSDPRFLHMLGRNGSSCLDLFLDFVDEQRMYIFAQRSIAQQTLIDQNFEWNDADSDEITKQNIEKVLENDRKFDKVDKEDISLIVDGLIKQRNEKIQQKLQNERRILEQKKHYFWLLLQRTYTKTGKPKPSTWDLASKELGESLEYKALGDEDNIRRQIFEDFKPE |  | binding result [3]: binds; binding result [4]: binds; binding result [5]: binds
GST-fused Prp40 FF1 domain (134–189) (domain or fragment) EAEKEFITMLKENQVDSTWSFSRIISELGTRDPRYWMVDDDPLWKKEMFEKYLSNR | binds | 
GST-fused Prp40 FF2 domain (204–269) (domain or fragment) FKEAFQKMLQNNSHIKYYTRWPTAKRLIADEPIYKHSVVNEKTKRQTFQDYIDTLIDTQKESKKKL | binds | 
GST-fused Prp40 FF6 extension (488–583) (domain or fragment) NERRILEQKKHYFWLLLQRTYTKTGKPKPSTWDLASKELGESLEYKALGDEDNIRRQIFEDFKPESSAPTAESATANLTLTASKKRHLTPAVELDY | binds | 
